Data taken from US20240059797A1 (GRITSTONE BIO, published 2024).
Changes are numbered by the printed parent chain.

B1: G5(1C12) scFv (scFv, V domains shown)
VH: QVQLVQSGAEVKKPGSSVKVSCKASGGTFSNFGVSWLRQAPGQGLEWMGGIIPILGTANYAQKFQGRVTITADESTSTAYMELSSLRSEDTAVYYCATPTNSGYYGPYYYYGMDVWGQGTTVTVSS
VL: DIQMTQSPSSLSASVGDRVTITCRASQSISSWLAWYQQKPGKAPKLLIYAASTLQSGVPSRFSGSGSGTDFTLTISSLQPEDFATYYCQQSYSIPLTFGGGTKVEIK
notes: also called G5-P1C12
B2: G5(1E05) scFv (scFv, V domains shown)
VH: QVQLVQSGAEVKKPGASVKVSCKASGYTFTSYNMHWVRQAPGQGLEWMGWINPNSGGTNYAQKFQGRVTMTRDTSTSTVYMELSSLRSEDTAVYYCARDVMDVWGQGTTVTVSS
VL: DIQMTQSPSSLSASVGDRVTITCRASQGISNYLNWYQQKPGKAPKLLIYYASSLQSGVPSRFSGSGSGTDFTLTISSLQPEDFATYYCQQTYMMPYTFGQGTKVEIK
B3: G5(1B12) scFv (scFv, V domains shown)
VH: EVQLLESGGGLVQPGGSLRLSCAASGFTFSNSDMNWVRQAPGKGLEWVASISSSGGYINYADSVKGRFTISRDNSKNTLYLQMNSLRAEDTAVYYCAKVNWNDGPYFDYWGQGTLVTVSS
VL: B1 VL with T53S, S91A, Y92N, I94F
B4: G5(4E04) scFv (scFv, V domains shown)
VH: QVQLVQSGAEVKKPGASVKVSCKASGGTFSSYGISWVRQAPGQGLEWMGWINPNSGVTKYAQKFQGRVTMTRDTSTSTVYMELSSLRSEDTAVYYCARGDYYFDYWGQGTLVTVSS
VL: B1 VL with S31R, W32F, A34N, A50G, T53R, L54P, I94T, G100Q
B5: G5(4B01) scFv (scFv, V domains shown)
VH: QVQLVQSGAEVKKPGSSVKVSCKASGGTFSSYAISWVRQAPGQGLEWMGGIIPIVGTANYAQKFQGRVTITADESTSTAYMELSSLRSEDTAVYYCARGGSYYYYGMDVWGQGTTVTVSS
VL: not shown
B6: G5(3G08) scFv (scFv, V domains shown)
VH: QVQLVQSGAEVKKPGASVKVSCKASGYIFRNYPMHWVRQAPGQGLEWMGWINPDSGGTKYAQKFQGRVTMTRDTSTSTVYMELSSLRSEDTAVYYCARDNGVGVDYWGQGTLVTVSS
VL: B2 VL with N34A, Y50A, T91S, M93I, M94T, V104L
B7: G5(1D06) scFv (scFv, V domains shown)
VH: QVQLVQSGAEVKKPGASVKVSCKASGYTFTSYDINWVRQAPGQGLEWMGWINPNSGDTKYSQKFQGRVTMTRDTSTSTVYMELSSLRSEDTAVYYCARDGTRYYGMDVWGQGTTVTVSS
VL: not shown
B8: G5(1H11) scFv (scFv, V domains shown)
VH: EVQLLESGGGLVKPGGSLRLSCAASGFTFSDYYMSWVRQAPGKGLEWVSYISSSSSYTNYADSVKGRFTISRDDSKNTLYLQMNSLKTEDTAVYYCARDVVANFDYWGQGTLVTVSS
VL: EIVMTQSPATLSVSPGERATLSCRASQSVSSNLAWYQQKPGQAPRLLIYAASARASGIPARFSGSGSGTEFTLTISSLQSEDFAVYYCQQYGSWPRTFGQGTKVEIK
B9: G5(3G01) scFv (scFv, V domains shown)
VH: QVQLVQSGAEVKKPGASVKVSCKASGGTFSGYLVSWVRQAPGQGLEWMGWINPNSGGTNTAQKFQGRVTMTRDTSTSTVYMELSSLRSEDTAVYYCAREGYGMDVWGQGTTVTVSS
VL: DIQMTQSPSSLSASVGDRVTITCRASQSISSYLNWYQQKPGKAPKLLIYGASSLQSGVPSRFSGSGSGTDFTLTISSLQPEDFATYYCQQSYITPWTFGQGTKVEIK
B10: G5(4B02) scFv (scFv, V domains shown)
VH: QVQLVQSGAEVKKPGASVKVSCKASGYTFTGYYMHWVRQAPGQGLEWMGWMNPNIGNTGYAQKFQGRVTMTRDTSTSTVYMELSSLRSEDTAVYYCARGIADSGSYYGNGRDYYYGMDVWGQGTTVTVSS
VL: DIVMTQSPDSLAVSLGERATINCKTSQSVLYRPNNENYLAWYQQKPGQPPKLLIYQASIREPGVPDRFSGSGSGTDFTLTISSLQAEDVAVYYCQQYYTTPYTFGQGTKLEIK
B11: G5(2B10) scFv (scFv, V domains shown)
VH: QVQLVQSGAEVKKPGASVKVSCKASGGTFSSYAISWVRQAPGQGLEWMGWMNPDSGSTGYAQRFQGRVTMTRDTSTSTVYMELSSLRSEDTAVYYCARGHSSGWYYYYGMDVWGQGTTVTVSS
VL: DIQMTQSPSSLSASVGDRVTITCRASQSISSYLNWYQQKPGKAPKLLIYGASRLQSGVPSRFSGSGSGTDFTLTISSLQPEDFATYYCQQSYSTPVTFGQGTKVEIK
B12: G5(3G05) scFv (scFv, V domains shown)
VH: QVQLVQSGAEVKKPGASVKVSCKASGYTFTNYYMHWVRQAPGQGLEWMGIINPSGGSTSYAQKFQGRVTMTRDTSTSTVYMELSSLRSEDTAVYYCARSWFGGFNYHYYGMDVWGQGTTVTVSS
VL: DIQMTQSPSSLSASVGDRVTITCQASEDISNHLNWYQQKPGKAPKLLIYDALSLQSGVPSRFSGSGSGTDFTLTISSLQPEDFATYYCQQANSFPFTFGPGTKVDIK
B13: G10(4E07) scFv (scFv, V domains shown)
VH: QVQLVQSGAEVKKPGSSVKVSCKASGYTFTGYYMHWVRQAPGQGLEWMGRISPSDGSTTYAPKFQGRVTITADESTSTAYMELSSLRSEDTAVYYCARDMGDAFDIWGQGTTVTVSS
VL: not shown
B14: G10(4D10) scFv (scFv, V domains shown)
VH: QVQLVQSGAEVKKPGASVKVSCKASGYTFTGYYLHWVRQAPGQGLEWMGMIGPSDGSTSYAQKFQGRVTMTRDTSTSTVYMELSSLRSEDTAVYYCARDGDAFDIWGQGTMVTVSS
VL: B1 VL with S28G, A50D, T53N, Q55E, S56T, I94T
B15: G10(4G06) scFv (scFv, V domains shown)
VH: QVQLVQSGAEVKKPGASVKVSCKASGYTLSYYYMHWVRQAPGQGLEWMGMIGPSDGSTSYAQRFQGRVTMTRDTSTGTVYMELSSLRSEDTAVYYCARDTGDHFDYWGQGTLVTVSS
VL: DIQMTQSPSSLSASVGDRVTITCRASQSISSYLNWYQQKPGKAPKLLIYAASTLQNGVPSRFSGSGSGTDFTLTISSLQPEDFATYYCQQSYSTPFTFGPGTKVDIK
B16: G10(4D04) scFv (scFv, V domains shown)
VH: QVQLVQSGAEVKKPGASVKVSCKASGYTFTGYYVHWVRQAPGQGLEWMGIIAPSDGSTNYAQKFQGRVTMTRDTSTSTVYMELSSLRSEDTAVYYCARDPGGYMDVWGKGTTVTVSS
VL: DIQMTQSPSSLSASVGDRVTITCRASQSISSYLAWYQQKPGKAPKLLIYDASKLETGVPSRFSGSGSGTDFTLTISSLQPEDFATYYCQQSYGVPTFGQGTKLEIK
B17: G10(5C08) scFv (scFv, V domains shown)
VH: QVQLVQSGAEVKKPGASVKVSCKASGYNFTGYYMHWVRQAPGQGLEWMGIIAPSDGSTNYAQKFQGRVTMTRDTSTSTVYMELSSLRSEDTAVYYCARETGDDAFDIWGQGTMVTVSS
VL: not shown
B18: G7(1A03) Fab (Fab, V domains shown)
VH: QVQLVQSGAEVKKPGASVKVSCKASGYTFTSQYMHWVRQAPGQGLEWMGWISPNNGDTNYAQKFQGRVTMTRDTSTSTVYMELSSLRSEDTAVYYCARELGYYYGMDVWGQGTTVTVSS
VL: B1 VL with S31T, A50Y, T53S, I94F, L96Y, G100Q
notes: Fab
B19: G7(2C02) Fab (Fab, V domains shown)
VH: QVQLVQSGAEVKKPGASMKVSCKASGYTFTTDGISWVRQAPGQGLEWMGRIYPHSGYTEYAKKFKGRVTMTRDTSTSTVYMELSSLRSEDTAVYYCARQDGGAFAFDIWGQGTMVTVSS
VL: DIQMTQSPSSLSASVGDRVTITCQASQDIFKYLNWYQQKPGKAPKLLIYAASTLQSGVPSRFSGSGSGTDFTLTISSLQPEDFATYYCQQSYSTPPTFGQGTRLEIK
notes: Fab
B20: G7(2E09) Fab (Fab, V domains shown)
VH: QVQLVQSGAEVKKPGSSVKVSCKASRYTFTSYDINWVRQAPGQGLEWMGRIIPMLNIANYAPKFQGRVTITADESTSTAYMELSSLRSEDTAVYYCARALIFGVPLLPYGMDVWGQGTTVTVSS
VL: not shown
notes: Fab
B21: G8(2E04) Fab (Fab, V domains shown)
VH: QVQLVQSGAEVKKPGSSVKVSCKASGGTFSSYGVSWVRQAPGQGLEWMGWISPYSGNTDYAQKFQGRVTITADESTSTAYMELSSLRSEDTAVYYCARGLYYMDVWGKGTTVTVSS
VL: B1 VL with A50D, T53N, Q55E, S56T, I94T, V104L
notes: Fab
B22: G8(2C10) Fab (Fab, V domains shown)
VH: QVQLVQSGAEVKKPGASVKVSCKASGYTFTSYYMHWVRQAPGQGLEWMGWINPYSGGTNYAQKFQGRVTMTRDTSTSTVYMELSSLRSEDTAVYYCAKGGIYYGSGSYPSWGQGTLVTVSS
VL: B1 VL with S28D, I29V, S31T, T53S, Y92H, I94T, L96Q, G100Q
notes: Fab
B23: G8(1C11) Fab (Fab, V domains shown)
VH: QVQLVQSGAEVKKPGASVKVSCKASGGTLSSYPINWVRQAPGQGLEWMGWISTYSGHADYAQKLQGRVTMTRDTSTSTVYMELSSLRSEDTAVYYCARSYDYGDYLNFDYWGQGTLVTVSS
VL: B19 VL with F30S, K31N, T53S, T94I, Q100G, R103K, L104V, E105D
notes: Fab; also called G8-P1C11

The binders below were run against T1, HLA-B*35:01_… (HLA-PEPTIDE target G5), recombinant biotinylated complex (human, enzymatically biotinylated (BirA)) (assay: scFv PPE ELISA).
T1 construct: also called G5-pHLA

Binder	fold selective binding to target pHLA over minipool of negative control pHLAs [fold]
B1	≥ 3
B2	≥ 3
B3	≥ 3
B4	≥ 3
B5	≥ 3
B6	≥ 3
B7	≥ 3
B8	≥ 3
B9	≥ 3
B10	≥ 3
B11	≥ 3
B12	≥ 3

The binders below were run against HLA-A*01:01_… (HLA-PEPTIDE target G10), recombinant biotinylated complex (human, enzymatically biotinylated (BirA)) (assay: scFv PPE ELISA).

Binder	fold selective binding to target pHLA over minipool of negative control pHLAs [fold]
B13	≥ 3
B14	≥ 3
B15	≥ 3
B16	≥ 3
B17	≥ 3

The binders below were run against HLA-A*02:01_… (HLA-PEPTIDE target G7), recombinant biotinylated complex (human, enzymatically biotinylated (BirA)) (assay: BLI, pHLA on sensor, Fab titrated, 1:1 model).

Binder	Kd [nM]	koff [s⁻¹]	kon [M⁻¹ s⁻¹]
B18	532	0.0994	197000
B19	531	0.0543	104000
B20	11.8	0.00212	185000

These binders were tested against HLA-A*02:01_… (HLA-PEPTIDE target G8), recombinant complex (human, enzymatically biotinylated (BirA) for screening and functional assays) (assay: BLI, pHLA on sensor, Fab titrated, 1:1 model).
Protocol: Binding affinity was assessed by bio-layer interferometry (BLI) using an Octet Qke (ForteBio). Briefly, biotinylated pHLA complexes in kinetics buffer were loaded onto streptavidin sensors for 300 seconds, at concentrations which gave the optimal nm shift response (approximately 0.6 nm) for each Fab at the highest concentration used. The ligand-loaded tips were subsequently equilibrated in the kinetics buffer for 120 seconds. The ligand-loaded biosensors were then dipped for 200 seconds in the Fab solution titrated into 2-fold dilutions. […] The dissociation step in the kinetics buffer was measured for 200 seconds. Data were analyzed using the ForteBio data analysis software using a 1:1 binding model.

Binder	Kd [nM]	koff [s⁻¹]	kon [M⁻¹ s⁻¹]
B21	286	0.0789	545000
B22	17.7	0.0013	75000
B23	178	0.0338	190000
